Experimental data published in patent US20070077597A1 (published 2007).

How the values were obtained:
[1] = target: LacI fusion clone 16 (Gt library) (E. coli, UniProt P03023 1-360); assay: panning, LacI Gt library on immobilized ROS membranes
Experimental: (§1) For screening of the library by “panning,” rhodopsin receptors prepared according to Example 5 were immobilized directly on Immulon 4 (Dynatech) microtiter wells (0.1-1 μg of protein per well) in cold 35 mM HEPES, pH 7.5, containing 0.1 mM EDTA, 50 mM KCl and 1 mM dithiothreitol (HEK/DTT). After shaking for one hour at 4° C., unbound membrane fragments were washed away with HEK/DTT. The wells were blocked with 100 μl 2% BSA in HEKL (35 mM HEPES; 0.1 mM EDTA; 50 mM KCl; 0.2 M α-lactose; pH 7.5, with 1 mM DTT). For rounds 1 and 2, BSA was used for blocking; in later rounds 1% nonfat dry milk was used. For the first round of panning, about 24 wells of a 96-well plate were used. In subsequent rounds, 8 wells with receptor and 8 wells without receptor were prepared.
(§2) The Gt library was thawed (2 mL aliquot) and mixed with 6 mL lysis buffer on ice. Lysis buffer contains 4.25 mL HE (25 mM HEPES: 0.1 mM EDTA; pH 7.5); 1 mL 50% glycerol; 750 μL 10 mg/mL protease-free BSA in HE; 10 μL 0.5 M DTT; and 6.25 μL 0.2 M PMSF. Freshly prepared lysozyme solution (150 μL 10 mg/mL lysozyme in cold HE) was added and the tube was gently inverted several times and incubated on ice for no more than two minutes. The extent of lysis is evidenced by an increase in viscosity that can be observed by noting the slow migration of bubbles to the top of the tube after mixing. Lysis was terminated by mixing in 2 mL 20% lactose and 250 μL 2M KCl. The tube was centrifuged immediately at 13,000×g for 15 minutes at 4° C. and the supernatant transferred to a new tube. A small aliquot of 0.1% (the PRE sample) was saved in a separate, labeled tube. […] Immediately thereafter, the crude bacterial lysate from the peptide library (200 μL) was added to each well and allowed to shake gently for one hour at 4° C. For round 2, this same procedure was followed. In round 3, the amount of lysate used was reduced to 100 μL. In subsequent rounds, the lysate was diluted 1:10 in HEKL/BSA.

[2] = target: T1, LacI fusion clone 8 (Gt library) (E. coli, UniProt P03023 1-360); assay: as above
T1 construct: also called Peptide 8; HAP
Experimental: as §1, §2

[3] = target: LacI fusion clone 11 (Gt library) (E. coli, UniProt P03023 1-360); assay: as above
Experimental: as §1, §2

[4] = target: LacI fusion clone 19 (Gt library) (E. coli, UniProt P03023 1-360); assay: as above
Experimental: as §1, §2

[5] = target: LacI fusion clone 3 (Gt library, light-activated rhodopsin screen) (E. coli, UniProt P03023 1-360); assay: as above
Experimental: as §1, §2

[6] = target: LacI fusion clone 27 (Gt library) (E. coli, UniProt P03023 1-360); assay: as above
Experimental: as §1, §2

[7] = target: LacI fusion clone 4 (Gt library) (E. coli, UniProt P03023 1-360); assay: as above
Experimental: as §1, §2

[8] = target: LacI fusion clone 6 (Gt library) (E. coli, UniProt P03023 1-360); assay: as above
Experimental: as §1, §2

[9] = target: LacI fusion clone 15/28 (Gt library) (E. coli, UniProt P03023 1-360); assay: as above
Experimental: as §1, §2

[10] = target: LacI fusion clone 24 (Gt library) (E. coli, UniProt P03023 1-360); assay: as above
Experimental: as §1, §2

[11] = target: LacI fusion clone 26 (Gt library, light-activated rhodopsin screen) (E. coli, UniProt P03023 1-360); assay: as above
Experimental: as §1, §2

[12] = target: LacI fusion clone 18 (Gt library) (E. coli, UniProt P03023 1-360); assay: as above
Experimental: as §1, §2

[13] = target: LacI fusion clone 23 (Gt library) (E. coli, UniProt P03023 1-360); assay: as above
Experimental: as §1, §2

[14] = target: LacI fusion clone 17 (Gt library, light-activated rhodopsin screen) (E. coli, UniProt P03023 1-360); assay: as above
Experimental: as §1, §2

[15] = target: T2, LacI fusion clone 13 (Gt library), … (E. coli, UniProt P03023 1-360); assay: as above
T2 construct: also called L20
Experimental: as §1, §2

[16] = target: LacI fusion clone 14 (Gt library) (E. coli, UniProt P03023 1-360); assay: as above
Experimental: as §1, §2

[17] = target: LacI fusion clone 7 (Gt library, dark-adapted rhodopsin screen) (E. coli, UniProt P03023 1-360); assay: panning, LacI Gt library on immobilized ROS membranes kept in the dark
[18] = target: LacI fusion clone 33/37 (Gt library, dark-adapted rhodopsin screen) (E. coli, UniProt P03023 1-360); assay: as above
[19] = target: LacI fusion clone 17 (Gt library, dark-adapted rhodopsin screen) (E. coli, UniProt P03023 1-360); assay: as above
[20] = target: LacI fusion clone 41 (Gt library, dark-adapted rhodopsin screen) (E. coli, UniProt P03023 1-360); assay: as above
[21] = target: LacI fusion clone 2 (Gt library, dark-adapted rhodopsin screen) (E. coli, UniProt P03023 1-360); assay: as above
[22] = target: LacI fusion clone 3 (Gt library, dark-adapted rhodopsin screen) (E. coli, UniProt P03023 1-360); assay: as above
[23] = target: LacI fusion clone 21 (Gt library, dark-adapted rhodopsin screen) (E. coli, UniProt P03023 1-360); assay: as above
[24] = target: LacI fusion clone 26 (Gt library, dark-adapted rhodopsin screen) (E. coli, UniProt P03023 1-360); assay: as above

Measured: binding result

B1: light-activated bovine rhodopsin (metarhodopsin II) in rod outer segment membranes (receptor, UniProt P02699 1-348, looked up)
chain: MNGTEGPNFYVPFSNKTGVVRSPFEAPQYYLAEPWQFSMLAAYMFLLIMLGFPINFLTLYVTVQHKKLRTPLNYILLNLAVADLFMVFGGFTTTLYTSLHGYFVFGPTGCNLEGFFATLGGEIALWSLVVLAIERYVVVCKPMSNFRFGENHAIMGVAFTWVMALACAAPPLVGWSRYIPEGMQCSCGIDYYTPHEETNNESFVIYMFVVHFIIPLIVIFFCYGQLVFTVKEAAAQQQESATTQKAEKEVTRMVIIMVIAFLICWLPYAGVAFYIFTHQGSDFGPIFMTIPAFFAKTSAVYNPVIYIMMNKQFRNCMVTTLCCGKNPLGDDEASTTVSKTETSQVAPA
modifications: retinylidene chromophore on Lys-296 (all-trans after light)
notes: whole, on cells; also called MII
not listed: [17] | [18] | [19] | [20] | [21] | [22] | [23] | [24]
binds: all other assays above

B2: dark-adapted bovine rhodopsin in rod outer segment membranes (receptor, UniProt P02699 1-348, looked up)
chain: MNGTEGPNFYVPFSNKTGVVRSPFEAPQYYLAEPWQFSMLAAYMFLLIMLGFPINFLTLYVTVQHKKLRTPLNYILLNLAVADLFMVFGGFTTTLYTSLHGYFVFGPTGCNLEGFFATLGGEIALWSLVVLAIERYVVVCKPMSNFRFGENHAIMGVAFTWVMALACAAPPLVGWSRYIPEGMQCSCGIDYYTPHEETNNESFVIYMFVVHFIIPLIVIFFCYGQLVFTVKEAAAQQQESATTQKAEKEVTRMVIIMVIAFLICWLPYAGVAFYIFTHQGSDFGPIFMTIPAFFAKTSAVYNPVIYIMMNKQFRNCMVTTLCCGKNPLGDDEASTTVSKTETSQVAPA
modifications: 11-cis retinylidene chromophore on Lys-296
notes: whole, on cells; same protein as m1, left in the dark
binds: [17] | [18] | [19] | [20] | [21] | [22] | [23] | [24]
